Source: patent publication US10941182 (Amgen, dated 2021)
Starred links: 1 amine or outer side, 2 acyl side, 3 side chain; linkers in the order of their positions; H or OH if unused. Non-standard residues stand in square brackets, D forms with d. *: point of attachment. dBip = N[C@H](Cc1ccc(-c2ccccc2)cc1)C(=O)O; Oic = O=C(O)[C@@H]1C[C@@H]2CCCC[C@@H]2N1; Phe(4-Cl) = N[C@@H](Cc1ccc(Cl)cc1)C(=O)O; dPhe(4-Cl) = N[C@H](Cc1ccc(Cl)cc1)C(=O)O; Phe(4-I) = N[C@@H](Cc1ccc(I)cc1)C(=O)O; γGlu = O=C(O)[C@H](CCC(=O)[*:2])N[*:1]; NMeR = CN[C@@H](CCCNC(=N)N)C(=O)O; Tridecanoyl = CCCCCCCCCCCCC(=O)*; hArg = N=C(N)NCCCC[C@H](N)C(=O)O; Cha = N[C@@H](CC1CCCCC1)C(=O)O; NMeL = CN[C@@H](CC(C)C)C(=O)O; Tle = CC(C)(C)[C@H](N)C(=O)O; Nle = CCCC[C@H](N)C(=O)O; Deg = CCC(N)(CC)C(=O)O; AEEA = NCCOCCOCC(=O)O; Aib = CC(C)(N)C(=O)O; BLeu = β-leucine

T1: human APJ receptor (human, UniProt P35414 1-380)
T1 sequence (looked up): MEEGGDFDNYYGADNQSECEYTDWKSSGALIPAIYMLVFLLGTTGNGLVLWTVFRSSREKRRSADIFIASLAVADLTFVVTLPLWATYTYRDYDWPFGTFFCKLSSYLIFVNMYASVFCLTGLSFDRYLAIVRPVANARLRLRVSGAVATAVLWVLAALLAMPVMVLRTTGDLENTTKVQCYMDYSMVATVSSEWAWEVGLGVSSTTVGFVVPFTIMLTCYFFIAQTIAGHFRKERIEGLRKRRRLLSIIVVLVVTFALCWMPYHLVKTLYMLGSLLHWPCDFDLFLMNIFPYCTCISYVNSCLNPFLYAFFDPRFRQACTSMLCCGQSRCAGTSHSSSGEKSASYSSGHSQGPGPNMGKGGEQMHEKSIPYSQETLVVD

T2: rat APJ receptor (rat, UniProt Q9JHG3 1-377)
T2 sequence (looked up): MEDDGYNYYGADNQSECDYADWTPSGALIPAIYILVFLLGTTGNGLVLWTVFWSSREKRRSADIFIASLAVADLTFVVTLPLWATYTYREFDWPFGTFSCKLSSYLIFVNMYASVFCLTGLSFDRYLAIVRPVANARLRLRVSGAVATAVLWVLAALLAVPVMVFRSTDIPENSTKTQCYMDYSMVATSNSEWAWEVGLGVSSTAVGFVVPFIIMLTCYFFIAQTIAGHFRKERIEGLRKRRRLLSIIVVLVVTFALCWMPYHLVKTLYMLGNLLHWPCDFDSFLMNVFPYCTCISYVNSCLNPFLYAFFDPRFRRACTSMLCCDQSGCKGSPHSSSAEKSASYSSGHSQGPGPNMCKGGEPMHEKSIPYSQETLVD

B1: apelin polypeptide SEQ ID NO: 271 (peptide)
peptide: Tridecanoyl-[γGlu][AEEA][AEEA][dQ][hArg]P[dR][Cha]SHKG[Oic][Nle][Deg][Phe(4-Cl)]-OH
SMILES: CCCCCCCCCCCCC(=O)N[C@@H](CCC(=O)NCCOCCOCC(=O)NCCOCCOCC(=O)N[C@H](CCC(N)=O)C(=O)N[C@@H](CCCCNC(=N)N)C(=O)N1CCC[C@H]1C(=O)N[C@H](CCCNC(=N)N)C(=O)N[C@@H](CC1CCCCC1)C(=O)N[C@@H](CO)C(=O)N[C@@H](Cc1c[nH]cn1)C(=O)N[C@@H](CCCCN)C(=O)NCC(=O)N1[C@H](C(=O)N[C@@H](CCCC)C(=O)NC(CC)(CC)C(=O)N[C@@H](Cc2ccc(Cl)cc2)C(=O)O)C[C@@H]2CCCC[C@@H]21)C(=O)O
B2: apelin polypeptide SEQ ID NO: 272 (peptide)
peptide: Tridecanoyl-[γGlu][AEEA][AEEA][dQ][hArg]P[dR][Cha]SHKG[Oic][Tle]P[Phe(4-Cl)]-OH
SMILES: CCCCCCCCCCCCC(=O)N[C@@H](CCC(=O)NCCOCCOCC(=O)NCCOCCOCC(=O)N[C@H](CCC(N)=O)C(=O)N[C@@H](CCCCNC(=N)N)C(=O)N1CCC[C@H]1C(=O)N[C@H](CCCNC(=N)N)C(=O)N[C@@H](CC1CCCCC1)C(=O)N[C@@H](CO)C(=O)N[C@@H](Cc1c[nH]cn1)C(=O)N[C@@H](CCCCN)C(=O)NCC(=O)N1[C@H](C(=O)N[C@H](C(=O)N2CCC[C@H]2C(=O)N[C@@H](Cc2ccc(Cl)cc2)C(=O)O)C(C)(C)C)C[C@@H]2CCCC[C@@H]21)C(=O)O
B3: apelin polypeptide SEQ ID NO: 273 (peptide)
peptide: Tridecanoyl-[γGlu][AEEA][AEEA][dQ][hArg]P[dR][Cha]S[Aib]KG[Oic][Nle]P[Phe(4-Cl)]-OH
SMILES: CCCCCCCCCCCCC(=O)N[C@@H](CCC(=O)NCCOCCOCC(=O)NCCOCCOCC(=O)N[C@H](CCC(N)=O)C(=O)N[C@@H](CCCCNC(=N)N)C(=O)N1CCC[C@H]1C(=O)N[C@H](CCCNC(=N)N)C(=O)N[C@@H](CC1CCCCC1)C(=O)N[C@@H](CO)C(=O)NC(C)(C)C(=O)N[C@@H](CCCCN)C(=O)NCC(=O)N1[C@H](C(=O)N[C@@H](CCCC)C(=O)N2CCC[C@H]2C(=O)N[C@@H](Cc2ccc(Cl)cc2)C(=O)O)C[C@@H]2CCCC[C@@H]21)C(=O)O
B4: apelin polypeptide SEQ ID NO: 274 (peptide)
peptide: Tridecanoyl-[γGlu][AEEA][AEEA][dQ][hArg]P[dR][BLeu]SHKG[Oic][Nle]P[Phe(4-Cl)]-OH
B5: apelin polypeptide SEQ ID NO: 275 (peptide)
peptide: Tridecanoyl-[γGlu][AEEA][AEEA][dQ][hArg]P[NMeR][BLeu]SHKG[Oic][Nle]P[Phe(4-Cl)]-OH
B6: apelin polypeptide SEQ ID NO: 277 (peptide)
peptide: Tridecanoyl-[γGlu][AEEA][AEEA][dL][hArg]P[dR][Cha]SHKG[Oic][Nle]P[Phe(4-Cl)]-OH
SMILES: CCCCCCCCCCCCC(=O)N[C@@H](CCC(=O)NCCOCCOCC(=O)NCCOCCOCC(=O)N[C@H](CC(C)C)C(=O)N[C@@H](CCCCNC(=N)N)C(=O)N1CCC[C@H]1C(=O)N[C@H](CCCNC(=N)N)C(=O)N[C@@H](CC1CCCCC1)C(=O)N[C@@H](CO)C(=O)N[C@@H](Cc1c[nH]cn1)C(=O)N[C@@H](CCCCN)C(=O)NCC(=O)N1[C@H](C(=O)N[C@@H](CCCC)C(=O)N2CCC[C@H]2C(=O)N[C@@H](Cc2ccc(Cl)cc2)C(=O)O)C[C@@H]2CCCC[C@@H]21)C(=O)O
B7: apelin polypeptide SEQ ID NO: 21 (peptide)
peptide: Ac-[hArg][hArg]Q[hArg][Oic][dR][NMeL]SHKG[Oic][Phe(4-I)]P[dBip]-OH
SMILES: CC(=O)N[C@@H](CCCCNC(=N)N)C(=O)N[C@@H](CCCCNC(=N)N)C(=O)N[C@@H](CCC(N)=O)C(=O)N[C@@H](CCCCNC(=N)N)C(=O)N1[C@H](C(=O)N[C@H](CCCNC(=N)N)C(=O)N(C)[C@@H](CC(C)C)C(=O)N[C@@H](CO)C(=O)N[C@@H](Cc2c[nH]cn2)C(=O)N[C@@H](CCCCN)C(=O)NCC(=O)N2[C@H](C(=O)N[C@@H](Cc3ccc(I)cc3)C(=O)N3CCC[C@H]3C(=O)N[C@H](Cc3ccc(-c4ccccc4)cc3)C(=O)O)C[C@@H]3CCCC[C@@H]32)C[C@@H]2CCCC[C@@H]21
B8: apelin polypeptide SEQ ID NO: 278 (peptide)
peptide: Tridecanoyl-[γGlu][AEEA][AEEA][BLeu][hArg]P[dR][Cha]SHKG[Oic][Nle]P[Phe(4-Cl)]-OH
B9: apelin polypeptide SEQ ID NO: 279 (peptide)
peptide: Tridecanoyl-[γGlu][AEEA][AEEA]Q[NMeR]P[dR][Cha]SHKG[Oic][Nle]P[Phe(4-Cl)]-OH
SMILES: CCCCCCCCCCCCC(=O)N[C@@H](CCC(=O)NCCOCCOCC(=O)NCCOCCOCC(=O)N[C@@H](CCC(N)=O)C(=O)N(C)[C@@H](CCCNC(=N)N)C(=O)N1CCC[C@H]1C(=O)N[C@H](CCCNC(=N)N)C(=O)N[C@@H](CC1CCCCC1)C(=O)N[C@@H](CO)C(=O)N[C@@H](Cc1c[nH]cn1)C(=O)N[C@@H](CCCCN)C(=O)NCC(=O)N1[C@H](C(=O)N[C@@H](CCCC)C(=O)N2CCC[C@H]2C(=O)N[C@@H](Cc2ccc(Cl)cc2)C(=O)O)C[C@@H]2CCCC[C@@H]21)C(=O)O
B10: apelin polypeptide SEQ ID NO: 280 (peptide)
peptide: Tridecanoyl-[γGlu][AEEA][AEEA][dQ][NMeR]P[dR][Cha]SHKG[Oic][Nle]P[Phe(4-Cl)]-OH
SMILES: CCCCCCCCCCCCC(=O)N[C@@H](CCC(=O)NCCOCCOCC(=O)NCCOCCOCC(=O)N[C@H](CCC(N)=O)C(=O)N(C)[C@@H](CCCNC(=N)N)C(=O)N1CCC[C@H]1C(=O)N[C@H](CCCNC(=N)N)C(=O)N[C@@H](CC1CCCCC1)C(=O)N[C@@H](CO)C(=O)N[C@@H](Cc1c[nH]cn1)C(=O)N[C@@H](CCCCN)C(=O)NCC(=O)N1[C@H](C(=O)N[C@@H](CCCC)C(=O)N2CCC[C@H]2C(=O)N[C@@H](Cc2ccc(Cl)cc2)C(=O)O)C[C@@H]2CCCC[C@@H]21)C(=O)O
B11: apelin polypeptide SEQ ID NO: 281 (peptide)
peptide: Tridecanoyl-[γGlu][AEEA][AEEA][dQ][hArg]P[dR][BLeu]SHKG[Oic][Nle]P[dPhe(4-Cl)]-OH
B12: apelin polypeptide SEQ ID NO: 282 (peptide)
peptide: Tridecanoyl-[γGlu][AEEA][AEEA][dQ][hArg]P[dR][Cha]SHKG[Oic][Nle][Phe(4-Cl)]-OH
SMILES: CCCCCCCCCCCCC(=O)N[C@@H](CCC(=O)NCCOCCOCC(=O)NCCOCCOCC(=O)N[C@H](CCC(N)=O)C(=O)N[C@@H](CCCCNC(=N)N)C(=O)N1CCC[C@H]1C(=O)N[C@H](CCCNC(=N)N)C(=O)N[C@@H](CC1CCCCC1)C(=O)N[C@@H](CO)C(=O)N[C@@H](Cc1c[nH]cn1)C(=O)N[C@@H](CCCCN)C(=O)NCC(=O)N1[C@H](C(=O)N[C@@H](CCCC)C(=O)N[C@@H](Cc2ccc(Cl)cc2)C(=O)O)C[C@@H]2CCCC[C@@H]21)C(=O)O
B13: apelin polypeptide SEQ ID NO: 283 (peptide)
peptide: Tridecanoyl-[γGlu][AEEA][AEEA][dQ][hArg]P[dR][Cha]SHKG[Oic][Nle][dPhe(4-Cl)]-OH
SMILES: CCCCCCCCCCCCC(=O)N[C@@H](CCC(=O)NCCOCCOCC(=O)NCCOCCOCC(=O)N[C@H](CCC(N)=O)C(=O)N[C@@H](CCCCNC(=N)N)C(=O)N1CCC[C@H]1C(=O)N[C@H](CCCNC(=N)N)C(=O)N[C@@H](CC1CCCCC1)C(=O)N[C@@H](CO)C(=O)N[C@@H](Cc1c[nH]cn1)C(=O)N[C@@H](CCCCN)C(=O)NCC(=O)N1[C@H](C(=O)N[C@@H](CCCC)C(=O)N[C@H](Cc2ccc(Cl)cc2)C(=O)O)C[C@@H]2CCCC[C@@H]21)C(=O)O
B14: apelin polypeptide SEQ ID NO: 284 (peptide)
peptide: Tridecanoyl-[γGlu][AEEA][AEEA]Q[dR]P[NMeR][Cha]SHKG[Oic][Nle]P[dPhe(4-Cl)]-OH
SMILES: CCCCCCCCCCCCC(=O)N[C@@H](CCC(=O)NCCOCCOCC(=O)NCCOCCOCC(=O)N[C@@H](CCC(N)=O)C(=O)N[C@H](CCCNC(=N)N)C(=O)N1CCC[C@H]1C(=O)N(C)[C@@H](CCCNC(=N)N)C(=O)N[C@@H](CC1CCCCC1)C(=O)N[C@@H](CO)C(=O)N[C@@H](Cc1c[nH]cn1)C(=O)N[C@@H](CCCCN)C(=O)NCC(=O)N1[C@H](C(=O)N[C@@H](CCCC)C(=O)N2CCC[C@H]2C(=O)N[C@H](Cc2ccc(Cl)cc2)C(=O)O)C[C@@H]2CCCC[C@@H]21)C(=O)O

These binders were tested against T1, human APJ receptor (assay: cell-based or functional assay).

Point of comparison: B10, “EC50 Human APJ Receptor” value 2.04 nM. Against it:
- B1 — 5.8-fold higher, 11.8 nM
- B2 — 8.2-fold higher, 16.8 nM
- B3 — within 1.5-fold, 1.67 nM
- B4 — 3.9-fold higher, 8.04 nM
- B5 — 1.7-fold higher, 3.43 nM
- B6 — 7.9-fold higher, 16.1 nM
- B7 — 3.6-fold lower, 0.57 nM
- B8 — 5-fold higher, 10.1 nM
- B9 — 1.6-fold higher, 3.29 nM
- B11 — 7.3-fold higher, 14.8 nM
- B12 — 2.8-fold higher, 5.79 nM
- B13 — 4.8-fold higher, 9.74 nM
- B14 — higher, > 4170 nM

Each binder was assayed against T2, rat APJ receptor (assay: cell-based or functional assay).

Point of comparison: B5, “EC50 Rat APJ Receptor” value 19.3 nM. Against it:
- B1 — 2.4-fold lower, 7.88 nM
- B2 — 1.7-fold lower, 11.5 nM
- B3 — 3.8-fold lower, 5.09 nM
- B4 — 2.4-fold higher, 46.2 nM
- B6 — within 1.5-fold, 20.9 nM
- B7 — 11-fold lower, 1.8 nM
- B8 — within 1.5-fold, 14.5 nM
- B9 — the same, 19.3 nM
- B10 — 4.3-fold lower, 4.47 nM
- B11 — 4.5-fold higher, 87.3 nM
- B12 — within 1.5-fold, 13.3 nM
- B13 — within 1.5-fold, 15.6 nM
- B14 — higher, > 4170 nM
